Assay in all cases: cell-based or functional assay
Experiment [1] concerns the target T1, GDF11 (UniProt O95390).
T1 sequence (looked up): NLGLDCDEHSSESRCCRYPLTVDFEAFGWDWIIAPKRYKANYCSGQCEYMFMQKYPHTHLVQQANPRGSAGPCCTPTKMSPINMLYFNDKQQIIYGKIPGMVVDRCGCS

Experiment [2] concerns the target T2, activin A (UniProt P08476).
T2 sequence (looked up): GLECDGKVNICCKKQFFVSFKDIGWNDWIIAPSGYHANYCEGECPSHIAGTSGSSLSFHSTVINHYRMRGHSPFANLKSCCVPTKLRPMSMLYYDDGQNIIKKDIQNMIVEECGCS

The target of experiment [3] is T3, BMP9 (UniProt Q9UK05).
T3 sequence (looked up): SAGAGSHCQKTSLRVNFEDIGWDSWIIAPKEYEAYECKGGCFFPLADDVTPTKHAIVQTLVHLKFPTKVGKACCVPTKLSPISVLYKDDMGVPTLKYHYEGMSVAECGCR

Experiment [4] addresses T4, activin B (UniProt P09529).
T4 sequence (looked up): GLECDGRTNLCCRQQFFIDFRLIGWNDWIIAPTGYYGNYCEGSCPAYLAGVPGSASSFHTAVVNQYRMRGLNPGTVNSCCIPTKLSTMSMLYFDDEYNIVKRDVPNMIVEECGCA

Experiment [5] deals with T5, GDF8 (UniProt O14793).
T5 sequence (looked up): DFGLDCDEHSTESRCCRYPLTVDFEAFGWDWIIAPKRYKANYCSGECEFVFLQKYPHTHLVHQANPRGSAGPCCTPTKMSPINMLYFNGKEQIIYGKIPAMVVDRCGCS

Experiment [6] addresses T6, BMP10 (UniProt O95393).
T6 sequence (looked up): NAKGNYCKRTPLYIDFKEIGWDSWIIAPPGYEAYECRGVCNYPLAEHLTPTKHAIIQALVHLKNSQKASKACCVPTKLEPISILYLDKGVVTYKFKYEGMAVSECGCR

Sequence of ActRIIB-G1Fc (SEQ ID NO: 5) (Fc fusion) (chain): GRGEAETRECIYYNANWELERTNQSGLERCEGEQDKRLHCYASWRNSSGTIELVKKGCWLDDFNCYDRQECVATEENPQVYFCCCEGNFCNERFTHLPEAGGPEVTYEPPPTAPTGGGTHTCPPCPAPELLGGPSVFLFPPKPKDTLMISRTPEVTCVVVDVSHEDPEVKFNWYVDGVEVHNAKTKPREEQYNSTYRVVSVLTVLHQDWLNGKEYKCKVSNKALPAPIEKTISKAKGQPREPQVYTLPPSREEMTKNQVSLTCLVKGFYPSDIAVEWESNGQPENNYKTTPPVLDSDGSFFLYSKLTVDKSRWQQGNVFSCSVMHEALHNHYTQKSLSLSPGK

For ActRIIB-Fc E50K (Fc fusion), the IC50 (ng/mL); A204 CAGA12 luciferase reporter in experiment [1] came out at 180 ng/mL; in experiment [2], 132 ng/mL; in experiment [3] it was 721 ng/mL.
With ActRIIB-Fc K74R (Fc fusion), the IC50 (ng/mL); A204 CAGA12 luciferase reporter in experiment [1] worked out at 45 ng/mL; in experiment [3], 165 ng/mL.
Regarding ActRIIB-Fc K55R (Fc fusion), the IC50 (ng/mL); A204 CAGA12 luciferase reporter stood at 318 ng/mL in experiment [1], 206 ng/mL in experiment [2] and 777 ng/mL in experiment [3].
On to ActRIIB-Fc E52K (Fc fusion), for which the IC50 (ng/mL); A204 CAGA12 luciferase reporter stood at 296 ng/mL in experiment [1], 762 ng/mL in experiment [2] and 10000 ng/mL in experiment [3].
Turning to ActRIIB-Fc Y60P (Fc fusion), the IC50 (ng/mL); A204 CAGA12 luciferase reporter in experiment [1] is 544 ng/mL.
With ActRIIB-G1Fc (SEQ ID NO: 5) (Fc fusion), the IC50 (nM); A204 CAGA12 luciferase reporter is 0.067 nM in experiment [4]; 0.12 nM in experiment [1]; 0.05 nM in experiment [2]; 0.95 nM in experiment [5]; 1.82 nM in experiment [3]; 0.036 nM in experiment [6]. The IC50 (ng/mL); A204 CAGA12 luciferase reporter in experiment [1] amounted to 9 ng/mL; in experiment [2] it was 8 ng/mL; in experiment [3], 31 ng/mL.
In the case of ActRIIB-Fc A24N (Fc fusion), the IC50 (ng/mL); A204 CAGA12 luciferase reporter in experiment [1] was found to be 99 ng/mL; in experiment [2], 128 ng/mL; in experiment [3], 409 ng/mL.
As to ActRIIB(F82T)-G1Fc (Fc fusion), the IC50 (nM); A204 CAGA12 luciferase reporter in experiment [4] was determined as 0.09 nM; in experiment [1], 0.27 nM; in experiment [2], 0.1 nM; in experiment [5], 2.17 nM; in experiment [6] it was 0.07 nM.
Consider ActRIIB-Fc E52A (Fc fusion), for which the IC50 (ng/mL); A204 CAGA12 luciferase reporter in experiment [1] turned out to be 71 ng/mL; in experiment [2] it was 198 ng/mL; in experiment [3], 359 ng/mL.
In turn, ActRIIB-Fc L79R (Fc fusion) displayed an IC50 (ng/mL); A204 CAGA12 luciferase reporter in experiment [1] of 234 ng/mL.
As to ActRIIB-Fc K55D (Fc fusion), the IC50 (ng/mL); A204 CAGA12 luciferase reporter in experiment [1] was determined as 365 ng/mL; in experiment [2] it was 396 ng/mL; in experiment [3], 5500 ng/mL.
As for ActRIIB(F82W, N83A)-G1Fc (Fc fusion), the IC50 (ng/mL); A204 CAGA12 luciferase reporter in experiment [1] came to 389 ng/mL; in experiment [3], 40000 ng/mL.
ActRIIB-Fc E50P (Fc fusion): the IC50 (ng/mL); A204 CAGA12 luciferase reporter in experiment [1] stood at 638 ng/mL; in experiment [2], 756 ng/mL; in experiment [3], 3000 ng/mL.
On to ActRIIB-Fc Y60K (Fc fusion), for which the IC50 (ng/mL); A204 CAGA12 luciferase reporter in experiment [1] was found to be 414 ng/mL.
On the same count and under the same terms, the result for ActRIIB-Fc F82W (Fc fusion) reads 276 ng/mL.
ActRIIB-Fc R40A (Fc fusion): the figures for the IC50 (ng/mL); A204 CAGA12 luciferase reporter in experiment [1] and in experiment [3] were 591 ng/mL and 1210 ng/mL, respectively.
ActRIIB(L79K)-G1Fc (Fc fusion): the IC50 (ng/mL); A204 CAGA12 luciferase reporter in experiment [1] worked out at 477 ng/mL.
